Results taken from the RNAGym collection of RNA variant scans (doi:10.7554/elife.80360).

B1: Hammerhead Ribozyme (parent)
chain: ACCGGAUGUGCUUUCCGGUCUGAUGAGUCCGUGAGGACGAAACAG

Variants of: B1
Experiment: self-cleavage, relative activity (ratio to wild type); higher = more cleavage; co-transcriptional

First: ACCGUAUGUGCUUUCCGGUCUGAUGAGUCCGUGAGGACGAAGCAG
Second: ACCGUAUGUGCUUUCCGGUCUGAUGAGUCCGUGAGGACGAAUCAG
The self-cleavage of the first is higher: 0.352 for the first, 0.323 for the second.

Compared with ACCGUAUGUGCUUUCCGGUCUGAUGAGUCCGUGAGGACGAACCAG, ACCGUAUGUGCUUUCCGGUCUGAUGUGUCCGUGAGGACGAAACAG is higher in self-cleavage: 0.327 for the first, 0.449 for the second.

First: ACCGUAUGUGCUUUCCGGUCUGAUGCGUCCGUGAGGACGAAACAG
Second: ACCGUAUGUGCUUUCCGGUCUGAUGGGUCCGUGAGGACGAAACAG
The self-cleavage of the first is higher: 0.357 for the first, 0.332 for the second.

Going from ACCGUAUGUGCUUUCCGGUCUGAUGAGUCCGUGAGGACGAAACUG to ACCGUAUGUGCUUUCCGGUCUGAUGAGUCCGUGAGGACGAAACCG, the self-cleavage rises from 0.391 to 0.515.

First: ACCGUAUGUGCUUUCCGGUCUGAUGAGUCCGUGAGGACGAAACGG
Second: ACCGCAUGUGCUUUCCGGUCUGACGAGUCCGUGAGGACGAAACAG
The self-cleavage of the first is higher: 0.918 for the first, 0.625 for the second.

Compared with ACCGCAUGUGCUUUCCGGUCUGAAGAGUCCGUGAGGACGAAACAG, ACCGCAUGUGCUUUCCGGUCUGAGGAGUCCGUGAGGACGAAACAG is lower in self-cleavage: 0.648 for the first, 0.499 for the second.

First: ACCGCAUGUGCUUACCGGUCUGAUGAGUCCGUGAGGACGAAACAG
Second: ACCGCAUGUGCUUGCCGGUCUGAUGAGUCCGUGAGGACGAAACAG
The self-cleavage of the first is lower: 0.845 for the first, 0.929 for the second.

First: ACCGCAUGUGCUUCCCGGUCUGAUGAGUCCGUGAGGACGAAACAG
Second: ACCGCAGGUGCUUUCCGGUCUGAUGAGUCCGUGAGGACGAAACAG
The self-cleavage of the first is lower: 0.429 for the first, 0.611 for the second.

First: ACCGUAUGUGCUUUCCGGUCUGAUGAGUCCGUGUGGACGAAACAG
Second: ACCGUAUGUGCUUUCCGGUCUGAUGAGUCCGUGCGGACGAAACAG
The self-cleavage of the first is lower: 0.83 for the first, 0.833 for the second.

First: ACCGUAUGUGCUUUCCGGUCUGAUGAGUCCGUGGGGACGAAACAG
Second: ACCGUAUGUGCUUUCCGGUCUGUUGAGUCCGUGAGGACGAAACAG
The self-cleavage of the first is higher: 0.882 for the first, 0.356 for the second.

Compared with ACCGUAUGUGCUUUCCGGUCUGCUGAGUCCGUGAGGACGAAACAG, ACCGUAUGUGCUUUCCGGUCUGGUGAGUCCGUGAGGACGAAACAG is lower in self-cleavage: 0.339 for the first, 0.287 for the second.

First: ACCGUAUGUGCUUUCCGGUCUGAUGAGUCCGUGAGGACGAUACAG
Second: ACCGUAUGUGCUUUCCGGUCUGAUGAGUCCGUGAGGACGACACAG
The self-cleavage of the first is lower: 0.332 for the first, 0.402 for the second.

Going from ACCGUAUGUGCUUUCCGGUCUGAUGAGUCCGUGAGGACGAGACAG to ACCGUAUGUGAUUUCCGGUCUGAUGAGUCCGUGAGGACGAAACAG, the self-cleavage rises from 0.316 to 0.919.

First: ACCGCAUGUGCUGUCCGGUCUGAUGAGUCCGUGAGGACGAAACAG
Second: ACCGCAUGUGCUAUCCGGUCUGAUGAGUCCGUGAGGACGAAACAG
The self-cleavage of the first is lower: 0.85 for the first, 1.25 for the second.

Compared with ACCGCAUGUGCUCUCCGGUCUGAUGAGUCCGUGAGGACGAAACAG, ACCGCAUGUGCUUUCCGGUCUGAUGAGACCGUGAGGACGAAACAG is lower in self-cleavage: 0.681 for the first, 0.376 for the second.

First: ACCGCAUGUGCUUUCCGGUCUGAUGAGGCCGUGAGGACGAAACAG
Second: ACCGCAUGUGCUUUCCGGUCUGAUGAGCCCGUGAGGACGAAACAG
The self-cleavage of the first is higher: 0.345 for the first, 0.33 for the second.

Going from ACCGCAUGUGCCUUCCGGUCUGAUGAGUCCGUGAGGACGAAACAG to ACCGCAUGUGCGUUCCGGUCUGAUGAGUCCGUGAGGACGAAACAG, the self-cleavage rises from 0.703 to 0.773.

Going from ACCGCAUGUGCAUUCCGGUCUGAUGAGUCCGUGAGGACGAAACAG to ACCGCAUGCGCUUUCCGGUCUGAUGAGUCCGUGAGGACGAAACAG, the self-cleavage falls from 0.788 to 0.63.

Going from ACCGCAUGGGCUUUCCGGUCUGAUGAGUCCGUGAGGACGAAACAG to ACCGCAUGAGCUUUCCGGUCUGAUGAGUCCGUGAGGACGAAACAG, the self-cleavage rises from 0.467 to 0.595.

First: ACCGUGUGUGCUUUCCGGUCUGAUGAGUCCGUGAGGACGAAACAG
Second: ACCGUUUGUGCUUUCCGGUCUGAUGAGUCCGUGAGGACGAAACAG
The self-cleavage of the first is higher: 0.644 for the first, 0.63 for the second.

Going from ACCGUCUGUGCUUUCCGGUCUGAUGAGUCCGUGAGGACGAAACAG to ACCGCAUGUGCUUUCCGGACUGAUGAGUCCGUGAGGACGAAACAG, the self-cleavage rises from 0.336 to 0.344.

Compared with ACCGCAUGUGCUUUCCGGGCUGAUGAGUCCGUGAGGACGAAACAG, ACCGCAUGUGCUUUCCGGCCUGAUGAGUCCGUGAGGACGAAACAG is lower in self-cleavage: 0.281 for the first, 0.269 for the second.

Compared with ACCGUAUGUGCUUUCCGGUCUGAUGAGUCCGUGAGGCCGAAACAG, ACCGUAUGUGCUUUCCGGUCUGAUGAGUCCGUGAGGGCGAAACAG is higher in self-cleavage: 0.403 for the first, 0.46 for the second.

Compared with ACCGUAUGUGCUUUCCGGUCUGAUGAGUCCGUGAGGUCGAAACAG, ACCGCAUGUGCUUUCCGGUCUGAUGAGUCCGGGAGGACGAAACAG is higher in self-cleavage: 0.417 for the first, 0.452 for the second.

Compared with ACCGCAUGUGCUUUCCGGUCUGAUGAGUCCGAGAGGACGAAACAG, ACCGCAUGUGCUUUCCGGUCUGAUGAGUCCGCGAGGACGAAACAG is higher in self-cleavage: 0.549 for the first, 0.559 for the second.

First: ACCGUAUGUGCUUUCCGGUCUGAUGAGUCCGUGAGGACGAAACAG
Second: ACCGUAUGUGCUUUCCGGUCUGAUGAGUCCGUGAGGACGUAACAG
The self-cleavage of the first is higher: 0.934 for the first, 0.319 for the second.

Going from ACCGUAUGUGCUUUCCGGUCUGAUGAGUCCGUGAGGACGCAACAG to ACCGUAUGUGCUUUCCGGUCUGAUGAGUCCGUGAGGACGGAACAG, the self-cleavage falls from 0.375 to 0.35.

Going from ACCGCAUGUGCUUUCCGGUCGGAUGAGUCCGUGAGGACGAAACAG to ACCGCAUGUGCUUUCCGGUCAGAUGAGUCCGUGAGGACGAAACAG, the self-cleavage falls from 0.367 to 0.307.

Variant ACCGCAUGUGCUUUCCGGUCCGAUGAGUCCGUGAGGACGAAACAG has a self-cleavage of 0.507.
